From article PMC9005958

Tested on: T1, GST-rCtrA (Ehrlichia chaffeensis), ORF:1c7d897d
T1 sequence: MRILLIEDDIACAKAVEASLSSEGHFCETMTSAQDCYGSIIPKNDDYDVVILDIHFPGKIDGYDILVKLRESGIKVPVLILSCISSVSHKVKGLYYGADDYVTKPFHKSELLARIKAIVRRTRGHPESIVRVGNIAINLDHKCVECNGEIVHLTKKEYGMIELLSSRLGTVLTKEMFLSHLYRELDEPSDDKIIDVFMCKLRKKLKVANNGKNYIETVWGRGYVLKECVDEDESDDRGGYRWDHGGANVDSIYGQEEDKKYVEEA
Experiment: EMSA

ATATAACCTAATAGTGACAAATAAATTAACAATAGTAGAAGTGTCATATAAAAGCAAGTCAGAATATAAATTTTTGTATAAAATATCGGTAACTTTTGTAAGGAAAATTTAATATATTACGTCAGGTAAGTAATAGCAAAAAAACTGGTTAAGTATAGTATCATGTGTAAAGGTGAGAAAAACAGCACTTATAAACTAGTCCCCCCCCCCCCCCTCTTATTGCTACATTCTTTTGCCACTATTTTTATTTACCTGCAGCA (double strand) [p28 promoter]
binding: no binding
